Laboratory results: article PMC13618070 (RNA (New York, N.Y.), 2025)
Residue numbers refer to the chain shown, from its start. Names may count otherwise.

B1: RDE-4 dsRBM1 and dsRBM2 point mutant R1^AAR2^AAR3 (K89A/K90A/K217A/K218A) (natural protein, C. elegans, UniProt G5EBF5 1-385, looked up)
chain: MDLTKLTFESVFGGSDVPMKPSRSEDNKTPRNRTDLEMFLKKTPLMVLEEAAKAVYQKTPTWGTVELPEGFEMTLILNEITVKGQATSAAAARQKAAVEYLRKVVEKGKHEIFFIPGTTKEEALSNIDQISDKAEELKRSTSDAVQDNDNDDSIPTSAEFPPGISPTENWVGKLQEKSQKSKLQAPIYEDSKNERTERFLVICTMCNQKTRGIRSKAADAKNLAAWLMWKALEDGIESLESYDMVDVIENLEEAEHLLEIQDQASKIKDKHSALIDILSDKKRFSDYSMDFNVLSVSTMGIHQVLLEISFRRLVSPDPDDLEMGAEHTQTEEIMKATAEKEKLRKKNMPDSGPLVFAGHGSSAEEAKQCACKSAIIHFNTYDFTD
B2: RDE-4 dsRBM2 point mutant R1R2^AAR3 (K217A/K218A) (natural protein, C. elegans, UniProt G5EBF5 1-385, looked up)
chain: B1 chain with A89K, A90K
B3: RDE-4 dsRBM1 point mutant R1^AAR2R3 (K89A/K90A) (natural protein, C. elegans, UniProt G5EBF5 1-385, looked up)
chain: B1 chain with A217K, A218K
B4: RDE-4 truncation R3 (dsRBM3 only, begins with M244) (domain or fragment, C. elegans, UniProt G5EBF5 244-385, looked up)
chain: MVDVIENLEEAEHLLEIQDQASKIKDKHSALIDILSDKKRFSDYSMDFNVLSVSTMGIHQVLLEISFRRLVSPDPDDLEMGAEHTQTEEIMKATAEKEKLRKKNMPDSGPLVFAGHGSSAEEAKQCACKSAIIHFNTYDFTD

molecular target: DCR-1•DRH-1 complex (DCR-1•(OSF)DRH-1) (C. elegans, UniProt P34529 1-1910; G5EDI8 1-1037); assay: pull-down

percent recovery normalized to WT RDE-4 | Binder
> 100% | B1
> 100% | B2
> 100% | B3
~72% | B4
